Here are results for eight variants from article PMC5065529, “Wnt Signalosome Assembly by DEP Domain Swapping of Dishevelled” (Molecular Cell, 2016).

B1: SNAP-FZD5 (Frizzled 5), wild type [human] / DEP_(414–507)-GFP, minimal DEP domain of DVL2 [human] (parent)
chain 1: GRGLSVHTDMASVTKAMAAPESGLEVRDRMWLKITIPNAFLGSDVVDWLYHHVEGFPERREARKYASGLLKAGLIRHTVNKITFSEQCYYVFGD
chain 2: ASKAPVCQEITVPMCRGIGYNLTHMPNQFNHDTQDEAGLEVHQFWPLVEIQCSPDLRFFLCSMYTPICLPDYHKPLPPCRSVCERAKAGCSPLMRQYGFAWPERMSCDRLPVLGRDAEVLCMDYNRSEATTAPPRPFPAKPTLPGPPGAPASGGECPAGGPFVCKCREPFVPILKESHPLYNKVRTGQVPNCAVPCYQPSFSADERTFATFWIGLWSVLCFISTSTTVATFLIDMERFRYPERPIIFLSACYLCVSLGFLVRLVVGHASVACSREHNHIHYETTGPALCTIVFLLVYFFGMASSIWWVILSLTWFLAAGMKWGNEAIAGYAQYFHLAAWLIPSVKSITALALSSVDGDPVAGICYVGNQNLNSLRGFVLGPLVLYLLVGTLFLLAGFVSLFRIRSVIKQGGTKTDKLEKLMIRIGIFTLLYTVPASIVVACYLYEQHYRESWEAALTCACPGHDTGQPRAKPEYWVLMLKYFMCLVVGITSGVWIWSGKTVESWRRFTSRCCCRPRRGHKSGGAMAAGDYPEASAALTGRTGPPGPAATYHKQVSLSHV

One test covers variants of B1. Nature of the test: FZD5-dependent PM recruitment of DEP-GFP (cell scoring). The note with it: with DEP_(414–507)-GFP, 100 cells scored in each case, parent: 52, read off a plot.
In the case of chain 2 ASKAPVCQEITVPMCRGIGYNLTHMPNQFNHDTQDEAGLEVHQFWPLVEIQCSPDLRFFLCSMYTPICLPDYHKPLPPCRSVCERAKAGCSPLMRQYGFAWPERMSCDRLPVLGRDAEVLCMDYNRSEATTAPPRPFPAKPTLPGPPGAPASGGECPAGGPFVCKCREPFVPILKESHPLYNKVRTGQVPNCAVPCYQPSFSADERTFATFWIGLWSVLCFISTSTTVATFLIDMERFRYPERPIIFLSACYLCVSLGFLVRLVVGHASVACSREHNHIHYETTGPALCTIVFLLVYFFGMASSIWWVILSLTWFLAAGMKWGNEAIAGYAQYFHLAAWLIPSVKSITALALSSVDGDPVAGICYVGNQNLNSLRGFVLGPLVLYLLVGTLFLLAGFVSLFRIRSVIKQGGTKTDKLEKLMIRIGIFTLLYTVPASIVVACYLYEQHYRESWEAALTCACPGHDTGQPRAKPEYWVLMLKYFMCLVVGITSGVWIWSGKTVESARRFTSRCCCRPRRGHKSGGAMAAGDYPEASAALTGRTGPPGPAATYHKQVSLSHV [chain 2 W504A], the screen value is 3 % of cells.
As to chain 2 ASKAPVCQEITVPMCRGIGYNLTHMPNQFNHDTQDEAGLEVHQFWPLVEIQCSPDLRFFLCSMYTPICLPDYHKPLPPCRSVCERAKAGCSPLMRQYGFAWPERMSCDRLPVLGRDAEVLCMDYNRSEATTAPPRPFPAKPTLPGPPGAPASGGECPAGGPFVCKCREPFVPILKESHPLYNKVRTGQVPNCAVPCYQPSFSADERTFATFWIGLWSVLCFISTSTTVATFLIDMERFRAPERPIIFLSACYLCVSLGFLVRLVVGHASVACSREHNHIHYETTGPALCTIVFLLVYFFGMASSIWWVILSLTWFLAAGMKWGNEAIAGYAQYFHLAAWLIPSVKSITALALSSVDGDPVAGICYVGNQNLNSLRGFVLGPLVLYLLVGTLFLLAGFVSLFRIRSVIKQGGTKTDKLEKLMIRIGIFTLLYTVPASIVVACYLYEQHYRESWEAALTCACPGHDTGQPRAKPEYWVLMLKYFMCLVVGITSGVWIWSGKTVESWRRFTSRCCCRPRRGHKSGGAMAAGDYPEASAALTGRTGPPGPAATYHKQVSLSHV [chain 2 Y240A], the screen value is 8 % of cells.
In the case of chain 2 ASKAPVCQEITVPMCRGIGYNLTHMPNQFNHDTQDEAGLEVHQFWPLVEIQCSPDLRFFLCSMYTPICLPDYHKPLPPCRSVCERAKAGCSPLMRQYGFAWPERMSCDRLPVLGRDAEVLCMDYNRSEATTAPPRPFPAKPTLPGPPGAPASGGECPAGGPFVCKCREPFVPILKESHPLYNKVRTGQVPNCAVPCYQPSFSADERTFATFWIGLWSVLCFISTSTTVATFLIDMERFRYPERPIIFLSACYLCVSLGFLVRLVVGHASVACSREHNHIHYETTGPALCTIVFLLVYFFGMASSIWWVILSLTWFLAAGMKWGNEAIAGYAQYFHLAAWLIPSVKSITALALSSVDGDPVAGICYVGNQNLNSLRGFVLGPLVLYLLVGTLFLLAGFVSLFRIRSAIKQGGTKTDKLEKLMIRIGIFTLLYTVPASIVVACYLYEQHYRESWEAALTCACPGHDTGQPRAKPEYWVLMLKYFMCLVVGITSGVWIWSGKTVESWRRFTSRCCCRPRRGHKSGGAMAAGDYPEASAALTGRTGPPGPAATYHKQVSLSHV [chain 2 V406A], the screen value was 49 % of cells.

The same test, now with this note: with DEP_(414–507)-GFP, 100 cells scored in each case, parent: 88, read off a plot.
Turning to chain 2 ASKAPVCQEITVPMCRGIGYNLTHMPNQFNHDTQDEAGLEVHQFWPLVEIQCSPDLRFFLCSMYTPICLPDYHKPLPPCRSVCERAKAGCSPLMRQYGFAWPERMSCDRLPVLGRDAEVLCMDYNRSEATTAPPRPFPAKPTLPGPPGAPASGGECPAGGPFVCKCREPFVPILKESHPLYNKVRTGQVPNCAVPCYQPSFSADERTFATFWIGLWSVLCFISTSTTVATFLIDMERFRYPERPIIFLSACYLCVSLGFLVRLVVGHASVACSREHNHIHYETTGPALCTIVFLLVYFFGMASSIWWVILSLTWFLAAGMKWGNEAIAGYAQYFHLAAWLIPSVKSITALALSSVDGDPVAGICYVGNQNLNSLRGFVLGPLVLYLLVGTLFLLAGFVSLFRIRSVIKQGGTKTDKLEKLMIRIGIFTLLYTVPASIVVACYLYEQHYRESWEAALTCACPGHDTGQPRAKPEYWVLMLKYFMCLVVGITSGVWIWSGKTVESARRFTSRCCCRPRRGHKSGGAMAAGDYPEASAALTGRTGPPGPAATYHKQVSLSHV [chain 2 W504A], the screen value was 24 % of cells.
Still for that read-out and setting: as for chain 2 ASKAPVCQEITVPMCRGIGYNLTHMPNQFNHDTQDEAGLEVHQFWPLVEIQCSPDLRFFLCSMYTPICLPDYHKPLPPCRSVCERAKAGCSPLMRQYGFAWPERMSCDRLPVLGRDAEVLCMDYNRSEATTAPPRPFPAKPTLPGPPGAPASGGECPAGGPFVCKCREPFVPILKESHPLYNKVRTGQVPNCAVPCYQPSFSADERTFATFWIGLWSVLCFISTSTTVATFLIDMERFRYPERPIIFLSACYLCVSLGFLVRLVVGHASVACSREHNHIHYETTGPALCTIVFLLVYFFGMASSIWWVILSLTWFLAAGMKWGNEAIAGYAQYFHLAAWLIPSVKSITALALSSVDGDPVAGICYVGNQNLNSLRGFVLGPLVLYLLVGTLFLLAGFVSLFRIRSVIKQGGTKTDKLEKAMIRIGIFTLLYTVPASIVVACYLYEQHYRESWEAALTCACPGHDTGQPRAKPEYWVLMLKYFMCLVVGITSGVWIWSGKTVESWRRFTSRCCCRPRRGHKSGGAMAAGDYPEASAALTGRTGPPGPAATYHKQVSLSHV [chain 2 L420A], the figure is 41 % of cells; as for chain 2 ASKAPVCQEITVPMCRGIGYNLTHMPNQFNHDTQDEAGLEVHQFWPLVEIQCSPDLRFFLCSMYTPICLPDYHKPLPPCRSVCERAKAGCSPLMRQYGFAWPERMSCDRLPVLGRDAEVLCMDYNRSEATTAPPRPFPAKPTLPGPPGAPASGGECPAGGPFVCKCREPFVPILKESHPLYNKVRTGQVPNCAVPCYQPSFSADERTFATFWIGLWSVLCFISTSTTVATFLIDMERFRAPERPIIFLSACYLCVSLGFLVRLVVGHASVACSREHNHIHYETTGPALCTIVFLLVYFFGMASSIWWVILSLTWFLAAGMKWGNEAIAGYAQYFHLAAWLIPSVKSITALALSSVDGDPVAGICYVGNQNLNSLRGFVLGPLVLYLLVGTLFLLAGFVSLFRIRSVIKQGGTKTDKLEKLMIRIGIFTLLYTVPASIVVACYLYEQHYRESWEAALTCACPGHDTGQPRAKPEYWVLMLKYFMCLVVGITSGVWIWSGKTVESWRRFTSRCCCRPRRGHKSGGAMAAGDYPEASAALTGRTGPPGPAATYHKQVSLSHV [chain 2 Y240A], 32 % of cells; as for chain 2 ASKAPVCQEITVPMCRGIGYNLTHMPNQFNHDTQDEAGLEVHQFWPLVEIQCSPDLRFFLCSMYTPICLPDYHKPLPPCRSVCERAKAGCSPLMRQYGFAWPERMSCDRLPVLGRDAEVLCMDYNRSEATTAPPRPFPAKPTLPGPPGAPASGGECPAGGPFVCKCREPFVPILKESHPLYNKVRTGQVPNCAVPCYQPSFSADERTFATFWIGLWSVLCFISTSTTVATFLIDMERFRYPERPIIFLSACYLCVSLGFLVRLVVGHASVACSREHNHIHYETTGPALCTIVFLLVYFFGMASSIWWVILSLTWFLAAGMKWGNEAIAGYAQYFHLAAWLIPSVKSITALALSSVDGDPVAGICYVGNQNLNSLRGFVLGPLVLYLLVGTLFLLAGFVSLFRIRSAIKQGGTKTDKLEKLMIRIGIFTLLYTVPASIVVACYLYEQHYRESWEAALTCACPGHDTGQPRAKPEYWVLMLKYFMCLVVGITSGVWIWSGKTVESWRRFTSRCCCRPRRGHKSGGAMAAGDYPEASAALTGRTGPPGPAATYHKQVSLSHV [chain 2 V406A], 86 % of cells.
Consider chain 2 ASKAPVCQEITVPMCRGIGYNLTHMPNQFNHDTQDEAGLEVHQFWPLVEIQCSPDLRFFLCSMYTPICLPDYHKPLPPCRSVCERAKAGCSPLMRQYGFAWPERMSCDRLPVLGRDAEVLCMDYNRSEATTAPPRPFPAKPTLPGPPGAPASGGECPAGGPFVCKCREPFVPILKESHPLYNKVRTGQVPNCAVPCYQPSFSADERTFATFWIGLWSVLCFISTSTTVATFLIDMERFRYPERPIIFLSACYLCVSLGFLVRLVVGHASVACSREHNHIHYETTGPALCTIVFLLVYFFGMASSIWWVILSLTWFLAAGMKWGNEAAAGYAQYFHLAAWLIPSVKSITALALSSVDGDPVAGICYVGNQNLNSLRGFVLGPLVLYLLVGTLFLLAGFVSLFRIRSVIKQGGTKTDKLEKLMIRIGIFTLLYTVPASIVVACYLYEQHYRESWEAALTCACPGHDTGQPRAKPEYWVLMLKYFMCLVVGITSGVWIWSGKTVESWRRFTSRCCCRPRRGHKSGGAMAAGDYPEASAALTGRTGPPGPAATYHKQVSLSHV [chain 2 I327A], for which the screen value is 30 % of cells.
Take chain 2 ASKAPVCQEITVPMCRGIGYNLTHMPNQFNHDTQDEAGLEVHQFWPLVEIQCSPDLRFFLCSMYTPICLPDYHKPLPPCRSVCERAKAGCSPLMRQYGFAWPERMSCDRLPVLGRDAEVLCMDYNRSEATTAPPRPFPAKPTLPGPPGAPASGGECPAGGPFVCKCREPFVPILKESHPLYNKVRTGQVPNCAVPCYQPSFSADERTFATFWIGLWSVLCFISTSTTVATFLIDMERFRYAERPIIFLSACYLCVSLGFLVRLVVGHASVACSREHNHIHYETTGPALCTIVFLLVYFFGMASSIWWVILSLTWFLAAGMKWGNEAIAGYAQYFHLAAWLIPSVKSITALALSSVDGDPVAGICYVGNQNLNSLRGFVLGPLVLYLLVGTLFLLAGFVSLFRIRSVIKQGGTKTDKLEKLMIRIGIFTLLYTVPASIVVACYLYEQHYRESWEAALTCACPGHDTGQPRAKPEYWVLMLKYFMCLVVGITSGVWIWSGKTVESWRRFTSRCCCRPRRGHKSGGAMAAGDYPEASAALTGRTGPPGPAATYHKQVSLSHV [chain 2 P241A]: the screen value is 20 % of cells.
Same read-out and setting: as for chain 2 ASKAPVCQEITVPMCRGIGYNLTHMPNQFNHDTQDEAGLEVHQFWPLVEIQCSPDLRFFLCSMYTPICLPDYHKPLPPCRSVCERAKAGCSPLMRQYGFAWPERMSCDRLPVLGRDAEVLCMDYNRSEATTAPPRPFPAKPTLPGPPGAPASGGECPAGGPFVCKCREPFVPILKESHPLYNKVRTGQVPNCAVPCYQPSFSADERTFATFWIGLWSVLCFISTSTTVATFLIDMERFRYPERPIIFLSACYLCVSLGFLVRLVVGHASVACSREHNHIHYETTGPALCTIVFLLVYFFGMASSIWWVILSLTWFLAAGMKWGNEAIAGYAQYFHLAAWLIPSVKSITALALSSVDGDPVAGICYVGNQNLNSLRGFVLGPLVLYLLVGTLFLLAGFVSLFRIRSVIKQGGTKTDKLEKLMIRIGIFTLLYTVPASIVVACYLYEQHYRESWEAALTCACPGHDTGQPRAKPEYWVLMLKYFMCLVVGITSGVAIWSGKTVESWRRFTSRCCCRPRRGHKSGGAMAAGDYPEASAALTGRTGPPGPAATYHKQVSLSHV [chain 2 W494A], the figure is 21 % of cells; as for chain 2 ASKAPVCQEITVPMCRGIGYNLTHMPNQFNHDTQDEAGLEVHQFWPLVEIQCSPDLRFFLCSMYTPICLPDYHKPLPPCRSVCERAKAGCSPLMRQYGFAWPERMSCDRLPVLGRDAEVLCMDYNRSEATTAPPRPFPAKPTLPGPPGAPASGGECPAGGPFVCKCREPFVPILKESHPLYNKVRTGQVPNCAVPCYQPSFSADERTFATFWIGLWSVLCFISTSTTVATFLIDMERFRYPERPIIFLSACYLCVSLGFLVRLVVGHASVACSREHNHIHYETTGPALCTIVFLLVYFFGMASSIWWVILSLTWFLAAGMKWGNETIAGYAQYFHLAAWLIPSVKSITALALSSVDGDPVAGICYVGNQNLNSLRGFVLGPLVLYLLVGTLFLLAGFVSLFRIRSVIKQGGTKTDKLEKLMIRIGIFTLLYTVPASIVVACYLYEQHYRESWEAALTCACPGHDTGQPRAKPEYWVLMLKYFMCLVVGITSGVWIWSGKTVESWRRFTSRCCCRPRRGHKSGGAMAAGDYPEASAALTGRTGPPGPAATYHKQVSLSHV [chain 2 A326T], 41 % of cells.
